Experimental data reported in the supplement of paper PMC9112550, “Optimization of the antimicrobial peptide Bac7 by deep mutational scanning” (BMC Biology, 2022).

Test system: Escherichia coli TOP10
Test: shrunken log2 fold change of peptide-encoding DNA abundance (4.5 h post-induction vs induction); higher = less antimicrobial activity (less host growth inhibition)
Settings: time post-induction: 4.5 h; library: site-saturation at positions 5, 18, 19, 20
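Also: peptides expressed intracellularly from a pBAD plasmid library in pooled LB shake-flask culture, induced with 0.3% L-arabinose, DNA abundance read by NGS, three biological replicates, DESeq2 with apeglm shrinkage.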

Sequence | shrunken log2 fold change
RRIRWRPPRLPRPRPRPSEKPRP | -0.153
RRIRLRPPRLPRPRPRPMFAPRP | 0.082
RRIRNRPPRLPRPRPRPSNAPRP | -0.343
RRIRRRPPRLPRPRPRPMFHPRP | -0.395
RRIRWRPPRLPRPRPRPLWSPRP | -0.13
RRIRCRPPRLPRPRPRPPAKPRP | 0.741
RRIRYRPPRLPRPRPRPMIDPRP | -0.00999
RRIRMRPPRLPRPRPRPFLKPRP | -0.636
RRIRARPPRLPRPRPRPEDCPRP | 0.243
RRIRNRPPRLPRPRPRPQISPRP | 0.00683
RRIRTRPPRLPRPRPRPVWLPRP | -0.101
RRIRKRPPRLPRPRPRPREGPRP | 1.08
RRIRKRPPRLPRPRPRPIELPRP | -0.025
RRIRQRPPRLPRPRPRPLASPRP | 0.00224
RRIRPRPPRLPRPRPRPDLMPRP | 0.303
RRIRQRPPRLPRPRPRPLRCPRP | 0.244
RRIRLRPPRLPRPRPRPQFQPRP | -0.0476
RRIRWRPPRLPRPRPRPEASPRP | 0.551
RRIRTRPPRLPRPRPRPCKFPRP | -0.298
RRIRKRPPRLPRPRPRPLGTPRP | 0.388
RRIRPRPPRLPRPRPRPYVKPRP | -0.172
RRIRGRPPRLPRPRPRPADVPRP | 0.508
RRIRYRPPRLPRPRPRPELIPRP | -0.363
RRIRVRPPRLPRPRPRPNQQPRP | 0.0476
RRIRNRPPRLPRPRPRPYYGPRP | -0.105

Sequence | shrunken log2 fold change
RRIRWRPPRLPRPRPRPFVRPRP | -0.127
RRIRWRPPRLPRPRPRPMKFPRP | -0.278
RRIRGRPPRLPRPRPRPHEKPRP | 0.0144
RRIRHRPPRLPRPRPRPYMKPRP | -0.541
RRIRLRPPRLPRPRPRPGWWPRP | 0.155
RRIRMRPPRLPRPRPRPAHHPRP | 0.0701
RRIRPRPPRLPRPRPRPHDVPRP | -0.242
RRIRWRPPRLPRPRPRPEATPRP | 1.44
RRIRYRPPRLPRPRPRPNVVPRP | -0.274
RRIRHRPPRLPRPRPRPGACPRP | 0.203
RRIRIRPPRLPRPRPRPWRTPRP | -1.03
RRIRHRPPRLPRPRPRPGFMPRP | 0.0294
RRIRVRPPRLPRPRPRPTNFPRP | -0.287
RRIRTRPPRLPRPRPRPTSDPRP | 0.0524
RRIRVRPPRLPRPRPRPVARPRP | 0.223
RRIRRRPPRLPRPRPRPLWEPRP | 0.378
RRIRGRPPRLPRPRPRPYIIPRP | -0.158
RRIRGRPPRLPRPRPRPQCEPRP | 1.31
RRIRPRPPRLPRPRPRPIATPRP | -0.159
RRIRTRPPRLPRPRPRPCKPPRP | -0.996
RRIRSRPPRLPRPRPRPNFYPRP | -0.252
RRIRDRPPRLPRPRPRPAWVPRP | 0.103
RRIRQRPPRLPRPRPRPVPKPRP | -0.00476
RRIRYRPPRLPRPRPRPKGRPRP | -0.258
RRIRQRPPRLPRPRPRPPPCPRP | 0.393

Sequence | shrunken log2 fold change
RRIRGRPPRLPRPRPRPNQHPRP | 0.189
RRIRNRPPRLPRPRPRPVSAPRP | 0.219
RRIRTRPPRLPRPRPRPDWSPRP | 0.163
RRIRWRPPRLPRPRPRPFEPPRP | 1.2
RRIRNRPPRLPRPRPRPARKPRP | 0.0797
RRIRPRPPRLPRPRPRPNEEPRP | -0.0581
RRIRPRPPRLPRPRPRPFDWPRP | 0.171
RRIRMRPPRLPRPRPRPACCPRP | 0.646
RRIRFRPPRLPRPRPRPNTQPRP | -0.309
RRIRPRPPRLPRPRPRPWSLPRP | -0.0559
RRIRVRPPRLPRPRPRPFSGPRP | -0.337
RRIRRRPPRLPRPRPRPPRQPRP | 1.04
RRIRIRPPRLPRPRPRPYNVPRP | -0.291
RRIRMRPPRLPRPRPRPFEEPRP | 0.0197
RRIRRRPPRLPRPRPRPCMGPRP | -0.1
RRIRVRPPRLPRPRPRPYMYPRP | -0.588
RRIRFRPPRLPRPRPRPSDTPRP | -0.308
RRIRKRPPRLPRPRPRPENYPRP | -0.0275
RRIRCRPPRLPRPRPRPKQLPRP | -0.0668
RRIRVRPPRLPRPRPRPVECPRP | -0.286
RRIRMRPPRLPRPRPRPHCLPRP | -0.0601
RRIRRRPPRLPRPRPRPLYGPRP | 0.0447
RRIRVRPPRLPRPRPRPMLTPRP | -0.066
RRIRYRPPRLPRPRPRPGKFPRP | -0.0427
RRIRDRPPRLPRPRPRPMSNPRP | -0.0263

Sequence | shrunken log2 fold change
RRIRCRPPRLPRPRPRPEFHPRP | -0.664
RRIRFRPPRLPRPRPRPQVVPRP | -0.152
RRIRMRPPRLPRPRPRPVGYPRP | 0.515
RRIRHRPPRLPRPRPRPRARPRP | 0.814
RRIRTRPPRLPRPRPRPLAPPRP | 0.263
RRIRGRPPRLPRPRPRPEWMPRP | 0.933
RRIRQRPPRLPRPRPRPQMMPRP | -0.082
RRIRKRPPRLPRPRPRPEHQPRP | 0.163
RRIRQRPPRLPRPRPRPNSAPRP | -0.173
RRIRCRPPRLPRPRPRPYLCPRP | -0.455
RRIRARPPRLPRPRPRPCVSPRP | -0.0271
RRIRERPPRLPRPRPRPHALPRP | -0.236
RRIRFRPPRLPRPRPRPNRKPRP | -0.173
RRIRKRPPRLPRPRPRPPEEPRP | 1.79
RRIRMRPPRLPRPRPRPTVQPRP | -0.0862
RRIRMRPPRLPRPRPRPVFVPRP | 0.0672
RRIRIRPPRLPRPRPRPEHWPRP | 0.168
RRIRKRPPRLPRPRPRPNHDPRP | -0.0524
RRIRCRPPRLPRPRPRPWCEPRP | -0.349
RRIRTRPPRLPRPRPRPKRDPRP | 0.187
RRIRQRPPRLPRPRPRPWWDPRP | 0.00367
RRIRGRPPRLPRPRPRPWSPPRP | 0.178
RRIRIRPPRLPRPRPRPGLQPRP | 0.0696
RRIRPRPPRLPRPRPRPDSVPRP | 0.195
RRIRWRPPRLPRPRPRPVKWPRP | -0.0659

Sequence | shrunken log2 fold change
RRIRLRPPRLPRPRPRPWTCPRP | -0.54
RRIRQRPPRLPRPRPRPQQWPRP | 0.201
RRIRKRPPRLPRPRPRPNWDPRP | 1.4
RRIRYRPPRLPRPRPRPLDIPRP | -1.69
RRIRQRPPRLPRPRPRPPKQPRP | -0.0279
RRIRPRPPRLPRPRPRPDISPRP | 0.0683
RRIRKRPPRLPRPRPRPYYEPRP | -0.493
RRIRDRPPRLPRPRPRPKFPPRP | -0.237
RRIRPRPPRLPRPRPRPASDPRP | 0.261
RRIRARPPRLPRPRPRPTDVPRP | 0.141
RRIRIRPPRLPRPRPRPRFQPRP | -0.0961
RRIRCRPPRLPRPRPRPFNVPRP | -0.146
RRIRTRPPRLPRPRPRPENTPRP | -0.0831
RRIRQRPPRLPRPRPRPDVLPRP | 0.0137
RRIRPRPPRLPRPRPRPFRDPRP | -0.118
RRIRIRPPRLPRPRPRPRLLPRP | -0.003
RRIRGRPPRLPRPRPRPHAFPRP | 0.372
RRIRLRPPRLPRPRPRPDHHPRP | -0.769
RRIRARPPRLPRPRPRPCLSPRP | 0.233
RRIRSRPPRLPRPRPRPSIIPRP | -0.253
RRIRIRPPRLPRPRPRPEALPRP | 0.00934
RRIRVRPPRLPRPRPRPLYTPRP | -0.345
RRIRYRPPRLPRPRPRPAHSPRP | -0.0299
RRIRERPPRLPRPRPRPICLPRP | -0.0493
RRIRARPPRLPRPRPRPNFGPRP | 0.324
